The record followed here is paper PMC7278498, “Crystal structures of the GH18 domain of the bifunctional peroxiredoxin–chitinase CotE from Clostridium difficile” (Acta Crystallographica. Section F, Structural Biology …, 2020).

One may read the stoichiometry N as a count of units in the complex or per binding partner.

In data set [1] the target is T1, pentapeptide Gly-Pro-Ala-Met-Lys (C. difficile).
T1 construct: residues 349 and 350 of CotE of Clostridium difficile; the side chain of residue 5 (Lys) is uncertain in the density; also called GPAMK; pentapeptide ligand; source: derived from the N-terminus of the E. coli-made CotE(349–712) after HRV 3C protease cleavage; co-purified and co-crystallised with the protein
In words: crystal structure; monoclinic form, P2_(1), 1.3 Å; 200 mM ammonium phosphate, 22.5% PEG 3350, 291 K; one protein molecule per asymmetric unit; peptide found in the active-site groove. Particulars: both partners purified.

Data set [2] concerns the molecule itself. The data set is described as follows: crystal structure; hexagonal form, P6_(1)22, ∼2.1 Å; protein washed with 2 M guanidine hydrochloride on the Ni column (partially unfolded/refolded), tag then removed; 0.1 M sodium malonate pH 5.5, 13% PEG 3350, C8E5; dimer formed with a crystallographic symmetry mate.

B1: CotE(349–712), C-terminal fragment of CotE comprising the GH18 chitinase domain (domain or fragment)
chain: GPAMKTLKDSKKLVRPQITDPYNPIVENANCPDINPIVAEYVLGNPTNVDAQLLDAVIFAFAEIDQSGNLFIPYPRFLNQLLALKGEKPSLKVIVAIGGWGAEGFSDAALTPTSRYNFARQVNQMINEYALDGIDIDWEYPGSSASGITSRPQDRENFTLLLTAIRDVIGDDKWLSVAGTGDRGYINSSAEIDKIAPIIDYFNLMSYDFTAGETGPNGRKHQANLFDSDLSLPGYSVDAMVRNLENAGMPSEKILLGIPFYGRLGATITRTYDELRRDYINKNGYEYRFDNTAQVPYLVKDGDFAMSYDDALSIFLKTQYVLRNCLGGVFSWTSTYDQANILARTMSIGINDPEVLKEELEGIYGQF
notes: CotE spore coat protein (peroxiredoxin-chitinase) of Clostridium difficile, residues 349-712; In the monoclinic crystal the model holds Ile363-Phe712; In the hexagonal crystal the protein is a 3D domain-swapped dimer with an intermolecular Cys376-Cys670 disulfide; also called CotE chitinase domain; chitinase domain of CotE; source: E. coli BL21(DE3), purified (HisTrap, HRV 3C cleavage, second …)
As for B1, the binding result in data set [1] is given as “binds”. Also, the “stoichiometry N” value in data set [2] amounted to 2.
